The data set “cryo-EM structure” deals with the molecule itself. Nature of the data set: cryo-EM structure.
The data set “negative stain EM” concerns the molecule itself. Nature of the data set: negative stain EM.

B1: Hantaan virus nucleoprotein, recombinant full-length (natural protein)
chain: MATMEELQREINAHEGQLVIARQKVRDAEKQYEKDPDELNKRTLTDREGVAVSIQAKIDELKRQLADRIATGKNLGKEQDPTGVEPGDHLKERSMLSYGNVLDLNHLDIDEPTGQTADWLSIIVYLTSFVVPILLKALYMLTTRGRQTTKDNKGTRIRFKDDSSFEDVNGIRKPKHLYVSLPNAQSSMKAEEITPGRYRTAVCGLYPAQIKARQMISPVMSVIGFLALAKDWSDRIEQWLIEPCKLLPDTAAVSLLGGPATNRDYLRQRQVALGNMETKESKAIRQHAEAAGCSMIEDIESPSSIWVFAGAPDRCPPTCLFIAGIAELGAFFSILQDMRNTIMASKTVGTSEEKLRKKSSFYQSYLRRTQSMGIQLGQRIIVLFMVAWGKEAVDNFHLGDDMDPELRTLAQSLIDVKVKEISNQEPLKL
notes: also called HTNV-NP; NP
With B1, the binding result in “cryo-EM structure” is “binds”.

B2: NP_(74-429) construct obtained by trypsin limited proteolysis of HTNV-NC (domain or fragment)
chain: NLGKEQDPTGVEPGDHLKERSMLSYGNVLDLNHLDIDEPTGQTADWLSIIVYLTSFVVPILLKALYMLTTRGRQTTKDNKGTRIRFKDDSSFEDVNGIRKPKHLYVSLPNAQSSMKAEEITPGRYRTAVCGLYPAQIKARQMISPVMSVIGFLALAKDWSDRIEQWLIEPCKLLPDTAAVSLLGGPATNRDYLRQRQVALGNMETKESKAIRQHAEAAGCSMIEDIESPSSIWVFAGAPDRCPPTCLFIAGIAELGAFFSILQDMRNTIMASKTVGTSEEKLRKKSSFYQSYLRRTQSMGIQLGQRIIVLFMVAWGKEAVDNFHLGDDMDPELRTLAQSLIDVKVKEISNQEPLKL
notes: also called truncated construct NP_(74-429)
For the protein B2, the binding result in “negative stain EM” is “binds”.

Values taken from publication PMC6365055, “High resolution cryo-EM structure of the helical RNA-bound Hantaan virus nucleocapsid reveals its assembly mechanisms” (eLife, 2019).
